Data: publication PMC10515186

Legend:
[1] = biological target: SARS-CoV-2 spike protein (Hexapro S) (SARS-CoV-2); assay: dynamic light scattering
[2] = biological target: SARS-CoV-2 spike protein (Hexapro S) (SARS-CoV-2)
[3] = biological target: SARS-CoV-2 spike protein (Hexapro S) (SARS-CoV-2); assay: other fluorescence titration

Row | Substance | lowest lectin concentration with a significant increase in hydrodynamic radius [1] | EC50, plaque reduction assay, SARS-CoV-2 Munich isolate in Vero E6 cells [2] | half-saturation point [3]
1 | Burkholderia oklahomensis agglutinin (BOA) (natural protein) | 60 nM | 9 nM | –
2 | Oscillatoria agardhii agglutinin (OAA) (natural protein) | 125 nM | – | –
3 | SeTau-405 fluorescently labeled BOA (natural protein) | – | – | 30 to 60 nM
